Data taken from the DeepSol protein solubility set.

Assay: soluble on expression in E. coli; label from the status in PepcDB or PDB records

Row | Sequence | soluble on expression in E. coli
1 | MKSKYEPLFDKVELPNGVELRNRFVLAPLTHISSNDDGTISDVELPYIEKRSQDVGITINAASNVSDVGKAFPGQPSIAHDSNIEGLKRLATAMKKNGAKALVQIHHGGAQALPELTPDGDVVAPSPISLKSFGQKQEHSAREMTNEEIEQAIKDFGEATRRAIEAGFDGVEIHGANHYLIHQFVSPYYNRRNDVWANQYKFPVAVIEEVLKAKEAYGNKDFIVGYRLSPEEAESPGITMEITEELVNKISHMPIDYIHVSMMDTHATTREGKYAGQERLPLIHKWINGRMPLIGIGSIFTADEALDAVENVGVDLVAIGRELLLDYQFVEKIKDGREDEIINYFDPEREDNHHLTPNLWHQFNEGFYPLPRKDK | not soluble
2 | MKSLSALEAEQWITIRSIFLIDLPFRSFSFSLPAEEKQDLQCNLQNLVNHNFSFLQVIHLQVSHINDADVLTGLNGRIGSFLLPSIATGTGTATGTAATTGASAITASSRSRRILGDEFEDHVIVPATCGSRAVVGKPQRIIDLETKVDTSNIPHRTVLFLFHTGTSKRGIENPQAVNLHLIPCYEHLLHRADKGLHHMLHIFHRKRTDRLDLTRQRLDRIKFRFPRLGFEHIHHRRFVITNLFFALIAHHRHCCHTEFVLKKRRTFSLSVGETKIRQCTGNFPDYDGLCRTMTG | not soluble
3 | MKSYTKHTHTNRLASESSPYLLQHAHNPVEWFPWGEEALQKAKAEDKPILVSIGYSACHWCHVMEHECFEKEEVAAVMNDLFINIKIDREERPDLDQIYMDAVSAMGLRGGWPLNVFLTPDAKPFYGGTYFPQDHWLNLLGQISNAYLNHREDILKSAESFTESLNQSDVF | not soluble
4 | MKTIYIYKGSIPEDKKKGDNAIWVTEKKIIDALEKAANSNGESTQSNPKTIALQAAKKETKKSNKKESKTIGYTTTGYVNADGKHIFDTDRINNERFDRKIIIGATLETLDQSSTLQSGEAIVLPAPGKYKSSDQKTVMTAQGPKIIGIHANAKENEETQKFVNWF | soluble
5 | MKTLIKNGKIIKKENQLIEAALWLENGVIHAIGESFDEADFEQVFDANGQLITPGLVDVHVHFREPGFTYKETIKTGSKAAARGGFTTVCAMPNLNPVPDTAEKLSEVYDLIQKDAVVKVLQYAPITEELRSEVLTNQKALKEAGAFAFTNDGVGVQTAGTMYLAMKEAAALNMALVAHTEDESLLFGGVMHEGEVSKKLGLPGILSATEASQIARDITLAKETGVHYHVCHVSTEESVRVIRDAKKAGIHVTAEVSPHHLILVDEDIPGDEGFWKMNPPLRGLADRQALIDGLLDGTIDCIATDHAPHGLEEKQQSFLNAPFGIVGSETAFQLIYTNFVETGIFTLEQVIDWMAVKPAEIFGLNAGTLTIGAPADIAVFDLATAAPIDAEAFESMAVNTPFTGWTVKGKTLMTFVDGALAWSEEAQ | not soluble
6 | MKTMSEEDSRTASRYAMIREVLRNAIVSGAAAKGLVLLEAPLGELFGTSRVPVRKALNLLHEEGLISRFDGRGYLVNPERQHVEPLRLSLSHKQFGLDSNEELVDTRPLGERIHDEIGAALSACIAFGHYRLDEQSAAQHYGVSRSVVREALMRLRDRGLVEKEPYSQWLAGPLTAREITEDYELRACLEPEALRLTAPQLSRETLEAMLTRVVEAQNAEQCSLEDIERLEEDLHQQCLAGLQNRKIATLISQAQSPMIINRIFYRLLDIGADEAMLAEHRLIIELLLHGAFDAAALNLKEHLQRARQRMLQRLKVLSVLPEQEVPGYLTRLS | not soluble
7 | MKTNPAVDSARLGLLLNELRLPAIKVMWPQFAERADKEGWPAARFLAAIIEHELAERDRRRIERHLAEARLLPGKTLDTFEFEAVPMISKAQVMAITAGDSWLEKGANLLLFGPPGGGKSHLASAIGLALIETGWRVMFTRTTDLVQKLQVARRELGLEAAINRLDRFHLLILDDLAYVTKDQAETSVLFELISARYERRSLLITANQPFGEWGKVFPDPSNARYPCCAAALEHHHHHH | not soluble
8 | MKTNTIITIGRQFGSAGREIGYQIADYFGIKLYDKEMLSRAAKESGICEEIFETHDEKPTNSFLYSLVMDTYSMGYSGGSYSDMPINHKVFLAQFDAIKKIADEGPCILVGRCADYALESYDNVVNVFIHADLDARIRRIARIYNLTDAKAKDMIIKTDKKRASYYNYYTNKKWSDSESYELCLSSSELGIEGTAKAIEQYVMLKEQIQRDDKIL | not soluble
9 | MKTSEWIDISQPLNNNIATWPGDTPFSYEVSWSKEESGSVNVGKLTMSIHTGTHIDAPFHFDNDGKKVLDLDVQVYVGPARIIDVSNLESIGKKELESFHLEGVERLLLRTSSHGKAEEFPEVIPHLRADIASFLSEKGIRLIGVDVPSVDPLDDKELAAHHQLFKHGIHILENVVLDHVADGDYELIALPLALTDADGSPVRAVIRPILEHHHHHH | soluble
10 | MKTSSIIEFKNPISKYQHDVDDGLHSDYKVINNEFIHKSIRILENYQFIQSLSHADKSTLIQHLKIRKYYHNQTVYNQNDPCTDINILLEGALKLGWSTSQGKYHTDIFVPSGTLINIVPIVTGQPLLHDHIAQGRTVIANLPGQLFVDVIRNNADALFMVLKLICVRTQLNREQNFIYSTETLQTRLAKKLVFLVDYHSYQDKDKILLNLKLSQENLAELLQTSRQSINKELAALSNQNIIEVKYNQIFILDFEKLSNIAQTHQFHSTTKFL | not soluble
11 | MKVAVTGRPGVGKTTLCLKVHESLKDKMTVGGFITKEVRRDGVRVGFKLVDLSSGNEEWLARVGEGKARVGKYAVNVEGLEEFLDSVRTDADLVIIDEVGPMELKSRKFVRFVENLMGRERLLFTIHLKSRHRLLDRIRREFKVYVIDESNRNRIAEEITRILEGLEHHHHHH | soluble
12 | MKVDSLHNLSYKEEFEGDMKRSTAAYKKVSEDASIGSTYIADISEVGSQISGEPVQRIKIPEHRQILKRSLIKPVIMAGGNGKRLWPLASKDKPKQFKKILSDLTLLQQTLNRNKFLGQPTIITSKKYESITKEQATEIDVEIALITEPLQKNTAVCAIITALSATALGFDIVVLLPSNHHIADDINYLNTINKALHYVNECGICTIFL | not soluble
13 | MKVERVERVEDIDFEGLLKEGYTCFFFDFDNTLVPWKESKLEESKRRLLIELAKKARVVVVSNGKPRKVDLPVMFIWRAGKPFSLKLWRFLKKEKIDPKRCVMIGDQIFTDVLTGKIFGFRVIKVEPISAKEFFGTKILRFFEKILEGKVR | not soluble
14 | MKVFNRPILFDIVSRGSPDGLEGLLSFLLTHKKRLTDEEFREPSTGKTCLPKALLNLSAGRNDTIPILLDIAEKTGNMREFINSPFRDVYYRGQTALHIAIERRCKHYVELLVEKGADVHAQARGRFFQPKDEGGYFYFGELPLSLAACTNQPHIVHYLTENGHKQADLRRQDSRGNTVLHALVAIADNTRENTKFVTKMYDLLLIKCAKLFPDTNLEALLNNDGLSPLMMAAKTGKIGIFQHIIRREIADAAAHHHHHH | soluble
15 | MKVGIIGKQGRLGRVLQAILDENGFDVVENNWDIAFLSVPIGAAISYIEKYDGPFIEVSSVKTPFKKYAGRIVSIHPLFGPASYKDGVHRTVLFIKDISMPEYRDLIAEMFRGYEIVDTTADVHDKEMAKSLALPYAVAIISKNIDTAFRTKSFDTFKGIVRILENENEEVMLDTINKNPYAQYMYDIVKNLGMVIQMAGDPLEHHHHHH | not soluble
16 | MKVIIFGGSGFLGQQIAKILVQRQHQVISVSRHGKPATLSASWSHQVQWVCSDVTHDTNWQEQVQRADWVIDTVGILFENPRKKKTYQRLILTPVKKISSFLAQQKKPAKFLFISANTVPFPLRKYMDAKLAAEELIHQEVAEAVIFYPSLLVGQERTGTILFSKCIYFFKKIPFLKNLFIGYDPVPVAEMAQEIVHVLEGGNSIYTHRRTR | not soluble
17 | MKVILVNGSPHKDGCTFTALEEVAKALNEEGIDTEFFHLGTKPLNGCIACGHCRKHQRCVFPDSVNEFLDLAQEADGFIFGSPVHYAAAGGAITSFLDRVFYTDSGSGKQAFYLKPAAAVVSARRAGTTASLDQLNRYFTIKEMPIISSKYWNMVHGNTPEEVRKDEEGLQIMRTLGRNMAWFLKCKEAGIRAGIPFPSQEEGLRTNFIRLEHHHHHH | soluble
18 | MKVLKPGLLTTVQDIGRTGYQKYGVLASGAMDTVSLRIANLLIGNGENEAGLEITMMGPGPSFHFSKQTLIAVTGADFTLRINDEEAPLWKPVLIKENSTVSFGPCKLGSRAYLAAAGGIEVPAVMESKSTYVRGSIGGLHGRALQKEDELNIGEMSALSQTILSRLSSQLAHTVIGSTDVVSQPWEISVIEDESRHSSAGGISICLLHSRIKNAFSEEAFRVTPQSDRMGYRLKGEPLDLTAPLEMVSAAVSFGAAQMPPAGKPYYPCLQDRQDDWPAIRGIAHIISADLPIVSQIMPGEHVQFEPVSLQEAEALAVEREQHIKELKTRMKMEWLT | not soluble
19 | MKVLTVFGTRPEAIKMAPLVHALEKDPHFEAKVCVTAQHREMLDQVLTLFSIVPDYDLNIMQPGQGLTEITCRILEGLKPILADFKPDVVLVHGDTTTTIATSLAAFYQRIPVGHVEAGLRTGDLYSPWPEEANRTLTGHLAMYHFAPTENSRQNLLRENIPDERIFVTGNTVIDALIWVRDRVLTSDTLQAELAEQYPFLNANKKMILVTGHRRESFGQGFEHICQALAEIAAANQNVQIVYPVHLNPNVSEPVNRILGHVENVVLIEPQDYLPFVWLMNHAWLILTDSGGIQEEAPSLGKPVLVMRETTERPEAITAGTVRLIGTDSRRIVAEVMRLLHDENEYQTMSRAHNPYGDGQSCARILQALKSYRVSL | not soluble
20 | MKVNKFITIYKDIAQQIEGGRWKAEEILPSEHELTAQYGTSRETVRKALHMLAQNGYIQKIRGKGSVVLNREKMQFPVSGLVSFKELAQTLGKETKTTVHKFGLEPPSELIQKQLRANLDDDIWEVIRSRKIDGEHVILDKDYFFRKHVPHLTKEICENSIYEYIEGELGLSISYAQKEIVAEPCTDEDRELLDLRGYDHMVVVRNYVFLEDTSLFQYTESRHRLDKFRFVDFARRGK | soluble
21 | MKVPPKKKFLGNSEHPGDLLTQTSKCECQLASVYGNGRVPVKNKKATNAYFQQSIPSWSDTLRMTRQNKKQRGRRRWKKNRKKRRVKTG | not soluble
22 | MKVTAMDIYKLLPKTNCGKCGEASCMAFAAKLSQKEAELSACPQLKGADFEKLANMLAPAVREIKIGTGDRAVTIGGDEVLYRYELTYYNPTAVAVDLSDDMDDSAFDQKLVKIKNLEFERTGEILKLNAVALRNKSGDAEKFKKAAEKLKDSEIPVILCSFDPKAMDAALDVIGSKRPLIYAATENNIDEMSELALKHNCPISLFVPNDLEKMKQLSRKLRESGVKDIVLDPGTYIGEAIGDTMDNFIMIRRLAVEEKDDDFRFPILAVPAVCWINPEEDEILTKMKEATTAAALMNRYADVMILHGVDIWEMMPVLTLRQSLYTDPRKPQSVEAKIYEFGTVDENSPVIMTTNFALTYYTVAGDLKSGKVNCYLLVLDTNGKAVDVAVAGGQFNGKAAAELMKETGIEKLVNHKKLIIPGLAASVSGDIEDQSGWEVIVGTRDSSEVPAFLAKIW | not soluble
23 | MKVTKSEIVISAVKPEQYPEGGLPEIALAGRSNVGKSSFINSLINRKNLARTSSKPGKTQTLNFYIINDELHFVDVPGYGFAKVSKSEREAWGRMIETYITTREELKAVVQIVDLRHAPSNDDVQMYEFLKYYGIPVIVIATKADKIPKGKWDKHAKVVRQTLNIDPEDELILFSSETKKGKDEAWGAIKKMINR | soluble
24 | MKVVQRKIKKSGKDRKRIGRGGSAYILDKRRITAVQNMKREAEKEKLRERFAAAANMPKDVVLGASVVTVIGNGEISIENYRGILEYTGELIRVQTKKGQIQVHGKGLQIEYYLNDEMKITGKIHTLEYEMLEHHHHHH | soluble
